{
  "source": "patent EP4484441A1",
  "about": "(Eberhard-Karls-Universität Tübingen, dated 2025)",
  "target": "T1, polypeptide 10 (human)",
  "T1 construct": "The empty single-chain polypeptide as secreted by WEHI-231 cells, about 50 kD; also called MHC-derived polypeptide; single continuous amino acid chain 12",
  "T1 sequence (chain, as listed by the source limits assumed)": "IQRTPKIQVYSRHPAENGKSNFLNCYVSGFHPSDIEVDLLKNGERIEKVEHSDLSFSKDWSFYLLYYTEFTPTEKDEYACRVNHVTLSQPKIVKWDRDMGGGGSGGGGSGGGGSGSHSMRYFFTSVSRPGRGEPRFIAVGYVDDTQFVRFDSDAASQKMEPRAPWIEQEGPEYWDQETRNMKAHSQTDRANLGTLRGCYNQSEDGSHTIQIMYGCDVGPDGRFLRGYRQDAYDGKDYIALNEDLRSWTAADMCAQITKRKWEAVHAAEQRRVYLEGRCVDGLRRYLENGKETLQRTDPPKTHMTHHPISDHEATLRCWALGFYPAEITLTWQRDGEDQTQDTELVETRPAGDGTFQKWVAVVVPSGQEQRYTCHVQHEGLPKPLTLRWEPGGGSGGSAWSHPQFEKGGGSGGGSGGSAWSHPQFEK",
  "assay": "inferred from peptide-dependent multimer staining of TCR-expressing Jurkat76 cells (flow cytometry)",
  "data": [
    {"binder": "LTDLGQNLLY", "note": "[oligopeptide 26]", "values": [
      {"measurement": "binding result", "value": "binds"}
    ]}
  ]
}
